Laboratory results published in patent US20120073001A1, “METHODS AND COMPOSITIONS FOR […] OR […] […]” (THE JOHNS HOPKINS UNIVERSITY, published 2012).

Molecular target: T1, mouse MrgprC11, endogenous in wild-type DRG neurons (mouse)
T1 chain: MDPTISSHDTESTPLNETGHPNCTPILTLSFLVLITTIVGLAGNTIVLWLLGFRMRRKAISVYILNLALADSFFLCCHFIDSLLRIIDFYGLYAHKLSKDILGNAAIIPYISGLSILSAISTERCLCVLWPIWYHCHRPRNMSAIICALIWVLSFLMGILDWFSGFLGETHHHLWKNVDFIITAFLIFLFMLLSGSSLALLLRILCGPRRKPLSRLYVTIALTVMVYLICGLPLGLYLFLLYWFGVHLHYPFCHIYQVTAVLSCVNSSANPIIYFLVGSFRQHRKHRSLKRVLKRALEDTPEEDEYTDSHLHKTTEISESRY
Test: cell-based or functional assay

B1: BAM8-22 (peptide)
peptide: VGRPEWWMDYQKRYG
increased [Ca2+]i, calcium imaging of WT and Mrgpr-cluster deletion DRG neurons: 3.6 % of WT DRG neurons
